According to patent US20190330339A1 (published 2019):
Values belong to the binder of their own block, whether it stands above or below them.

Legend:
[1] = target: T1, human LAG-3 expressed on cells (human, UniProt P18627 23-525); test: flow cytometry on 3A9 cells over-expressing human LAG-3
T1 construct: the transgene of the cell lines is not tied to it by name; also called hLAG-3; 3A9.hLAG-3
T1 sequence: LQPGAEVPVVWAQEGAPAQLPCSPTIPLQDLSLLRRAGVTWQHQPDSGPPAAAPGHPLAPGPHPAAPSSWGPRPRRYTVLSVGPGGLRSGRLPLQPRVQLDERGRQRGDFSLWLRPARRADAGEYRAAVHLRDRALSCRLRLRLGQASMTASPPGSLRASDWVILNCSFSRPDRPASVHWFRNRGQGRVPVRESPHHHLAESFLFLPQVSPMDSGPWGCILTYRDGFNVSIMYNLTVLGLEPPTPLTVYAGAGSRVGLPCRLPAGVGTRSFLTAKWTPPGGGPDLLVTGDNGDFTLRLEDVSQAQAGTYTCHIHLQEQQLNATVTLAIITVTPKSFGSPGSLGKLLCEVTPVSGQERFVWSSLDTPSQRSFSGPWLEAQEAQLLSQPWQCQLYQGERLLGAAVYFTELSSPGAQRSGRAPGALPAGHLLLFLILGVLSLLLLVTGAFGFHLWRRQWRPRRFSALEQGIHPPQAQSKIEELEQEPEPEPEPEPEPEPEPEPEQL
Experimental: Binding to cell-expressed human LAG-3 was evaluated on human LAG-3 over-expressing 3A9 cells. A Nanobody dilution series was prepared in assay buffer: PBS/10% FBS/0.05% sodium azide. 1×10⁵ cells/well were transferred to a 96-well V-bottom plate and resuspended in 100 μL Nanobody dilution. After 30 minutes incubation at 4° C., the cells were washed with 100 μL/well assay buffer and resuspended in 100 μL/well of 1 μg/ml anti-FLAG (Sigma, F1804). […] Samples were incubated for 30 minutes at 4° C., washed, and resuspended in 100 μL/well of 5 nM TOPRO3 (LifeTechnologies, T3606) solution before analysis on FACS CANTO II (BD).

human LAG-3-hFc = target: T2, human LAG-3-hFc (human, UniProt P18627 23-450); test: flow cytometry ligand competition; LAG-3-hFc on Daudi cells
T2 construct: also called human LAG3-Fc; not shown: human Fc (hFc)
T2 sequence: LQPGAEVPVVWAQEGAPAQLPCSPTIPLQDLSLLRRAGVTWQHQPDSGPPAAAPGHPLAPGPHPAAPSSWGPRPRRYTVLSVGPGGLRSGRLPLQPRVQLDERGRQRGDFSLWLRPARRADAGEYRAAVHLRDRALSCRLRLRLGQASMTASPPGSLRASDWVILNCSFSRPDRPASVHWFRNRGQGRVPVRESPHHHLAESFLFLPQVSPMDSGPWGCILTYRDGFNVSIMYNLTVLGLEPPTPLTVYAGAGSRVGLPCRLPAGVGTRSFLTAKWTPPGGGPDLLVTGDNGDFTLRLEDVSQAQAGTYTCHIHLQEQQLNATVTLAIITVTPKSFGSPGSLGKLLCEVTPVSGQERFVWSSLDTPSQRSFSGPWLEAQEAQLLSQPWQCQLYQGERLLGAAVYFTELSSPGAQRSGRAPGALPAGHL
Experimental: A Nanobody dilution series was prepared in assay buffer: HBSS/2% FBS. Prior to the experiment, Fc receptors on the Daudi cells were blocked with human Fc block (BD Pharmingen, 564220) and 5 μg/mL goat IgG (Jackson ImmunoResearch, 005-000-003) for 30 minutes at 4° C. […] 1×10⁵ cells/well were seeded in V-bottom 96-well plates and resuspended in 100 μL/well of the Nanobody/ligand dilution. After 30 minutes incubation at 4° C., the cells were washed and resuspended in 100 μL/well PE-labeled Goat anti-human IgG (Southern Biotech, 2043-09). Samples were incubated for 15 minutes at 4° C., washed, and resuspended in 100 μL/well of 5 nM TOPRO3 (LifeTechnologies, T3606) solution before analysis on FACS CANTO II (BD).

[2] = target: T3, human PD-1 expressed on cells (human, UniProt Q15116 25-288); test: flow cytometry ligand competition on CHO cells over-expressing human PD-1
T3 construct: the transgene of the cell lines is not tied to it by name; also called hPD-1; CHO.hPD-1
T3 sequence (Q15116 25-288 limits assumed): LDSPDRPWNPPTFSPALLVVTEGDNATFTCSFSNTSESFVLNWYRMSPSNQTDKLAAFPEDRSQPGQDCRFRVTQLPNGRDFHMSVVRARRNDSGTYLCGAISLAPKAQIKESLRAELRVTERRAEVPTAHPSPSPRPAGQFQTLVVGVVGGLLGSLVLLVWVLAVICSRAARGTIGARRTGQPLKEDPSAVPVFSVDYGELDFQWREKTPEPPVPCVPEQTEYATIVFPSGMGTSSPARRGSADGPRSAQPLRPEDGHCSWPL
Experimental: Ligand competition assays were performed on human PD-1 over-expressing CHO cells. A Nanobody dilution series was prepared in assay buffer: PBS/10% FBS/0.05% sodium azide. […] 2×10⁴ cells/well were seeded in V-bottom 96-well plates and resuspended in 200 μL/well of the Nanobody/ligand dilution. After 90 minutes incubation at 4° C., the cells were washed with 100 μL/well assay buffer and resuspended in 100 μL/well PE-labeled Goat anti-human IgG (Southern Biotech, 2043-09). Samples were incubated for 30 minutes at 4° C., washed, and resuspended in 100 μL/well of 5 nM TOPRO3 (LifeTechnologies, T3606) solution before analysis on FACS CANTO II (BD).

binding result [1]: binds
binding result (human LAG-3-hFc): binds
B1: F0237611B09-FLAG3-HIS6 (VHH)
VHH: EVQLVESGGGLVQAGGSLRLSCAASGRTFSDYVMGWFRQARGNEREFVAAISESGGRTHYADAVKGRFTISRDNAKNTLYLQMNSLKPEDTAVYYCATTLLWWTSEYAPIKANDYDYWGQGTLVTVSS
notes: Original monovalent anti-human LAG-3 Nanobody; also called F0237611B09-FLAG-His6; F02376611B09

binding result [2]: binds
B2: F023700275 (1PD102C12(A14P, A74S, K83R)-FLAG3-HIS6) (VHH)
VHH: EVQLVESGGGLVQPGGSLRLSCAASGSIASIHAMGWFRQAPGKEREFVAVITWSGGITYYADSVKGRFTISRDNSKNTVYLQMNSLRPEDTAIYYCAGDKHQSSWYDYWGQGTLVTVSS
notes: Monovalent anti-human PD-1 Nanobody, parent of F023700706
